PMC7918695, “TFF1 Induces Aggregation and Reduces Motility of Helicobacter pylori” (International Journal of Molecular Sciences, 2021)

Target: the molecule itself
Assay: non-reducing SDS-PAGE with Western blot; purified hrTFF1 loaded without reducing agents to preserve the disulfide bonds; probed with polyclonal anti-TFF1 antibody

B1: human recombinant protein TFF1 (trefoil factor 1) (natural protein, UniProt P04155 25-84, looked up)
chain: EAQTETCTVAPRERQNCGFPGVTPSQCANKGCCFDDTVRGVPWCFYPNTIDVPPEEECEF
notes: Trefoil factor 1 (TFF1), human, recombinant from the hrTFF1-pIVEX vector; It is probably the mature secreted TFF1 without its signal peptide (surmised); The homodimer is held by disulfide bonds, since it is seen only under non-reducing conditions; also called hrTFF1; hTFF1; source: E. coli BLR (DE3) pLysS, purified (HisTrap HP, Factor Xa digestion, second HisTrap pass)
stoichiometry N: 2
